The data set can be described thus: SEC; SE-HPLC, TSK-gel SuperSW3000; 0.1 M phosphate, 0.1 M potassium sulfate pH 6.7; scFv at 0.1 mg/mL, 25 °C, 0.3 mL/min; monomer and dimer peaks told by molecular weight standards, percentages from peak areas. (SEC sorts molecules by how far they enter the pores of the column.)

Our source for the Monomer/dimer ratio (monomer %) values is article PMC8971466.

As for “L1, anti-VEGF scFv derived from bevacizumab with non-repetitive linker”, the Monomer/dimer ratio (monomer %) was 95.7%.
